Experimental data as given in the supplement of paper PMC10219994.
± gives the standard deviation of the averaged measurements.

B1: library; a variant is named by its letters at N, in order (parent)
chain: GAGACCGCAACTGAAAAGTTGTGGNNNNNATAGTGAGTCGCTGCCTGCAAAGACACAACT

Variants of: B1
Assay: ligation selection enrichment (abundance after / before one-round selection) (fold); higher = more template-directed ligation activity
Conditions: with T7Psub CACGGAUGCUAAUACGACUCACUAUA; MgCl2 25 mM; 42 °C; 4 h; pH 8.5
In short: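 Two independent reactions combined a T7-transcribed RNA ligase library with five randomized core positions (0.75 μM) and RNA substrate (6 μM) in 50 mM EPPS pH 8.5, 25 mM MgCl2, run for 4 h at 42 °C. The ligated products were sequenced on a MiSeq, and only reads with quality ≥30 at all randomized positions were counted. Enrichment is the abundance after ligation divided by the abundance before ligation.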

Row | Variant | ligation selection enrichment
1 | GAGACCGCAACTGAAAAGTTGTGGCCCTGATAGTGAGTCGCTGCCTGCAAAGACACAACT [CCCTG] | 0.425 ± 0.013
2 | GAGACCGCAACTGAAAAGTTGTGGCCCTTATAGTGAGTCGCTGCCTGCAAAGACACAACT [CCCTT] | 0.213 ± 0.065
3 | GAGACCGCAACTGAAAAGTTGTGGCCCTCATAGTGAGTCGCTGCCTGCAAAGACACAACT [CCCTC] | 0.14 ± 0.025
4 | GAGACCGCAACTGAAAAGTTGTGGCCCTAATAGTGAGTCGCTGCCTGCAAAGACACAACT [CCCTA] | 0.186 ± 0.0061
5 | GAGACCGCAACTGAAAAGTTGTGGTCCGCATAGTGAGTCGCTGCCTGCAAAGACACAACT [TCCGC] | 0.113 ± 0.026
6 | GAGACCGCAACTGAAAAGTTGTGGTCCGAATAGTGAGTCGCTGCCTGCAAAGACACAACT [TCCGA] | 0.205 ± 0.034
7 | GAGACCGCAACTGAAAAGTTGTGGTCCGGATAGTGAGTCGCTGCCTGCAAAGACACAACT [TCCGG] | 0.133 ± 0.0031
8 | GAGACCGCAACTGAAAAGTTGTGGTCCGTATAGTGAGTCGCTGCCTGCAAAGACACAACT [TCCGT] | 0.123 ± 0.096
9 | GAGACCGCAACTGAAAAGTTGTGGGCCCTATAGTGAGTCGCTGCCTGCAAAGACACAACT [GCCCT] | 0.424 ± 0.17
10 | GAGACCGCAACTGAAAAGTTGTGGTCCCTATAGTGAGTCGCTGCCTGCAAAGACACAACT [TCCCT] | 0.324 ± 0.076
11 | GAGACCGCAACTGAAAAGTTGTGGTCCCGATAGTGAGTCGCTGCCTGCAAAGACACAACT [TCCCG] | 0.46 ± 0.093
12 | GAGACCGCAACTGAAAAGTTGTGGCCCCGATAGTGAGTCGCTGCCTGCAAAGACACAACT [CCCCG] | 0.49 ± 0.0033
13 | GAGACCGCAACTGAAAAGTTGTGGCCCCTATAGTGAGTCGCTGCCTGCAAAGACACAACT [CCCCT] | 0.419 ± 0.21
14 | GAGACCGCAACTGAAAAGTTGTGGCCGGAATAGTGAGTCGCTGCCTGCAAAGACACAACT [CCGGA] | 0.278 ± 0.019
15 | GAGACCGCAACTGAAAAGTTGTGGCCGGTATAGTGAGTCGCTGCCTGCAAAGACACAACT [CCGGT] | 0.152 ± 0.021
16 | GAGACCGCAACTGAAAAGTTGTGGCCGGGATAGTGAGTCGCTGCCTGCAAAGACACAACT [CCGGG] | 0.244 ± 0.014
17 | GAGACCGCAACTGAAAAGTTGTGGCCGGCATAGTGAGTCGCTGCCTGCAAAGACACAACT [CCGGC] | 0.1797 ± 0.00074
18 | GAGACCGCAACTGAAAAGTTGTGGTCCTAATAGTGAGTCGCTGCCTGCAAAGACACAACT [TCCTA] | 0.147 ± 0.063
19 | GAGACCGCAACTGAAAAGTTGTGGTCCTCATAGTGAGTCGCTGCCTGCAAAGACACAACT [TCCTC] | 0.107 ± 0.011
20 | GAGACCGCAACTGAAAAGTTGTGGTCCTGATAGTGAGTCGCTGCCTGCAAAGACACAACT [TCCTG] | 0.246 ± 0.011
21 | GAGACCGCAACTGAAAAGTTGTGGTCCTTATAGTGAGTCGCTGCCTGCAAAGACACAACT [TCCTT] | 0.232 ± 0.029
22 | GAGACCGCAACTGAAAAGTTGTGGGCGTAATAGTGAGTCGCTGCCTGCAAAGACACAACT [GCGTA] | 0.332 ± 0.038

Row | Variant | ligation selection enrichment
23 | GAGACCGCAACTGAAAAGTTGTGGCCCGTATAGTGAGTCGCTGCCTGCAAAGACACAACT [CCCGT] | 0.207 ± 0.059
24 | GAGACCGCAACTGAAAAGTTGTGGCCCGAATAGTGAGTCGCTGCCTGCAAAGACACAACT [CCCGA] | 0.405 ± 0.013
25 | GAGACCGCAACTGAAAAGTTGTGGCCCGGATAGTGAGTCGCTGCCTGCAAAGACACAACT [CCCGG] | 0.327 ± 0.049
26 | GAGACCGCAACTGAAAAGTTGTGGCCCGCATAGTGAGTCGCTGCCTGCAAAGACACAACT [CCCGC] | 0.163 ± 0.053
27 | GAGACCGCAACTGAAAAGTTGTGGGCCTCATAGTGAGTCGCTGCCTGCAAAGACACAACT [GCCTC] | 0.114 ± 0.0038
28 | GAGACCGCAACTGAAAAGTTGTGGGCCTTATAGTGAGTCGCTGCCTGCAAAGACACAACT [GCCTT] | 0.162 ± 0.02
29 | GAGACCGCAACTGAAAAGTTGTGGGCCTGATAGTGAGTCGCTGCCTGCAAAGACACAACT [GCCTG] | 0.624 ± 0.06
30 | GAGACCGCAACTGAAAAGTTGTGGGCCTAATAGTGAGTCGCTGCCTGCAAAGACACAACT [GCCTA] | 0.198 ± 0.017
31 | GAGACCGCAACTGAAAAGTTGTGGGCGGGATAGTGAGTCGCTGCCTGCAAAGACACAACT [GCGGG] | 0.201 ± 0.0056
32 | GAGACCGCAACTGAAAAGTTGTGGGCGGAATAGTGAGTCGCTGCCTGCAAAGACACAACT [GCGGA] | 0.334 ± 0.035
33 | GAGACCGCAACTGAAAAGTTGTGGGCGGTATAGTGAGTCGCTGCCTGCAAAGACACAACT [GCGGT] | 0.186 ± 0.11
34 | GAGACCGCAACTGAAAAGTTGTGGGCGGCATAGTGAGTCGCTGCCTGCAAAGACACAACT [GCGGC] | 0.103 ± 0.017
35 | GAGACCGCAACTGAAAAGTTGTGGTCGAAATAGTGAGTCGCTGCCTGCAAAGACACAACT [TCGAA] | 0.975 ± 0.19
36 | GAGACCGCAACTGAAAAGTTGTGGTCGATATAGTGAGTCGCTGCCTGCAAAGACACAACT [TCGAT] | 13.3 ± 3.8
37 | GAGACCGCAACTGAAAAGTTGTGGTCGAGATAGTGAGTCGCTGCCTGCAAAGACACAACT [TCGAG] | 0.7035 ± 0.0067
38 | GAGACCGCAACTGAAAAGTTGTGGTCGACATAGTGAGTCGCTGCCTGCAAAGACACAACT [TCGAC] | 1.74 ± 0.36
39 | GAGACCGCAACTGAAAAGTTGTGGACGTAATAGTGAGTCGCTGCCTGCAAAGACACAACT [ACGTA] | 0.221 ± 0.0031
40 | GAGACCGCAACTGAAAAGTTGTGGTCGTAATAGTGAGTCGCTGCCTGCAAAGACACAACT [TCGTA] | 0.31 ± 0.074
41 | GAGACCGCAACTGAAAAGTTGTGGGCCGCATAGTGAGTCGCTGCCTGCAAAGACACAACT [GCCGC] | 0.205 ± 0.036
42 | GAGACCGCAACTGAAAAGTTGTGGGCCGGATAGTGAGTCGCTGCCTGCAAAGACACAACT [GCCGG] | 0.313 ± 0.024
43 | GAGACCGCAACTGAAAAGTTGTGGGCCGAATAGTGAGTCGCTGCCTGCAAAGACACAACT [GCCGA] | 1.35 ± 0.035
44 | GAGACCGCAACTGAAAAGTTGTGGGCCGTATAGTGAGTCGCTGCCTGCAAAGACACAACT [GCCGT] | 0.214 ± 0.082
